Measured values reported in article PMC3632608.

Experiments:
[1] = target: Recombinant human α-synuclein (human) (UniProt P37840)
[2] = target: A30P mutant α-synuclein (human) (UniProt P37840)
[3] = target: A53T mutant α-synuclein (human) (UniProt P37840)
[4] = target: Recombinant human β-synuclein (human) (UniProt Q16143); assay: SEC; Superose 12, 50 mM Tris/HCl pH 7.4, 100 mM NaCl, 1 mM EDTA, 5% glycerol, 0.5 ml/min; 20-50 µg per run; in vitro aged α-synuclein, β-synuclein or co-incubated mixtures; mass estimated from gel filtration standards

reduction of isoaspartate formed in native α-synuclein on co-incubation with approximately equimolar β-synuclein, 0-20 days of in vitro ageing (methanol diffusion assay); value after 20 days [1]: 72.2%
reduction of isoaspartate formed in A30P α-synuclein on co-incubation with approximately equimolar β-synuclein, 0-20 days of in vitro ageing (methanol diffusion assay); value after 20 days [2]: 84.3%
reduction of isoaspartate formed in A53T α-synuclein on co-incubation with approximately equimolar β-synuclein, 0-20 days of in vitro ageing (methanol diffusion assay); value after 20 days [3]: 47.9%
stoichiometry N [4]: 4
Substance: Recombinant human β-synuclein (from UniProt Q16143 1-134) (natural protein)
